This note sets out measurements from article PMC3794917.

Data set [1] has as its target Rad51;Rad52 (Saccharomyces cerevisiae) (UniProt P06778). As to the kind of experiment: EMSA (glutaraldehyde-fixed, agarose). As to conditions: Rad52 EMSA: 10 mM Tris-HCl pH 8, 5 mM MgCl2, 100 mM NaCl, 37 C, 10 min, 0.27 uM XV2, 8% native PAGE, filament assays: SEB buffer, 60 mM NaCl (or titrated) …, scale: mM NaCl. (In EMSA bound probe runs differently from free probe, usually more slowly.)

Data set [2] concerns the target Rad51;Rad52-L264P L264P (Saccharomyces cerevisiae) (UniProt P06778). As to the kind of experiment: EMSA (glutaraldehyde-fixed, agarose). As to conditions: Rad52 EMSA: 10 mM Tris-HCl pH 8, 5 mM MgCl2, 100 mM NaCl, 37 C, 10 min, 0.27 uM XV2, 8% native PAGE, filament assays: SEB buffer, 60 mM NaCl (or titrated) …, scale: mM NaCl.
Data set [3] has as its target Rad51;Rad52 (Saccharomyces cerevisiae) (UniProt P06778). Briefly: EM. As to conditions: RPA pre-bound, 60 mM NaCl, Rad52 EMSA: 10 mM Tris-HCl pH 8, 5 mM MgCl2, 100 mM NaCl, 37 C, 10 min, 0.27 uM XV2, 8% native PAGE, filament assays: SEB buffer, 60 mM NaCl (or titrated) ….
Data set [4] concerns the target Rad51;Rad52-L264P L264P (Saccharomyces cerevisiae) (UniProt P06778). Briefly: EM. As to conditions: RPA pre-bound, 60 mM NaCl (WT Rad52 55%); Rad52 EMSA: 10 mM Tris-HCl pH 8, 5 mM MgCl2, 100 mM NaCl, 37 C, 10 min, 0.27 uM XV2, 8% native PAGE; filament assays: SEB buffer, 60 mM NaCl (or titrated) …; scale: % of complete Rad51 filaments associated with Rad52-L264P.

Rad51;Rad52-L264P L264P (Saccharomyces cerevisiae), sequence (P06778 whole entry L264P, looked up): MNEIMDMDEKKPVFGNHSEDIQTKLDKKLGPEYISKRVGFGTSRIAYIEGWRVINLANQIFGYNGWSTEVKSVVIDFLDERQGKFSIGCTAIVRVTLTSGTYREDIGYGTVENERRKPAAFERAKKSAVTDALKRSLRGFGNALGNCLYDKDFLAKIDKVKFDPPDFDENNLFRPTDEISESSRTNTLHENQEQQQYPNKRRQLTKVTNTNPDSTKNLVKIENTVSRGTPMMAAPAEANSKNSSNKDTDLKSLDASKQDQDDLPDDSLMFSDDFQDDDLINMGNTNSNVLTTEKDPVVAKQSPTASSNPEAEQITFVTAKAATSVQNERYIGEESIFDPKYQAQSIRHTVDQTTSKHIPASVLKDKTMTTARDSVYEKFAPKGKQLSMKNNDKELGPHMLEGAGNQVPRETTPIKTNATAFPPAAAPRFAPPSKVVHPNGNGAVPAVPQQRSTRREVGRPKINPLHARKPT
Rad51;Rad52 (Saccharomyces cerevisiae), sequence (P06778 whole entry, looked up): as the sequence (P06778 whole entry L264P, looked up) above, with P264L counted along it

Regarding 400-nt ssDNA fragment, the K half came out at 90 in data set [1] (RPA pre-bound, NaCl titration during assembly); 400 in data set [1]; 400 in data set [2] (RPA pre-bound, NaCl added after assembly, no difference from WT); 90 in data set [2]. The same substance gave a binding signal (% complete Rad51 filaments) in data set [3] (55% of complete filaments carry Rad52) of 48. The binding signal in data set [3] (scale: % of complete Rad51 filaments associated with Rad52) stood at 55; in data set [4], 74.
